# Legend:
# thebaine = assay: Whole cell biotransformation of thebaine to oripavine by E. coli cells expressing CODM variants; format: cell-based
# codeine = assay: Whole cell biotransformation of codeine to morphine by E. coli cells expressing CODM variants; format: cell-based
molecule,measurement,setting,value
"15K+M360I: codeine 3-O-demethylase with amino acid substitutions I5K and M360I (protein, listed as Papaver somniferum) METPKLIKLGNGLSIPSVQELAKLTLAEIPSRYTCTGESPLNNIGASVTDDETVPVIDLQNLLSPEPVVGKLELDKLHSACKEWGFFQLVNHGVDALLMDNIKSEIKGFFNLPMNEKTKYGQQDGDFEGFGQPYIESEDQRLDWTEVFSMLSLPLHLRKPHLFPELPLPFRETLESYLSKMKKLSTVVFEMLEKSLQLVEIKGMTDLFEDGLQTMRMNYYPPCPRPELVLGLTSHSDFSGLTILLQLNEVEGLQIRKEERWISIKPLPDAFIVNVGDILEIMTNGIYRSVEHRAVVNSTKERLSIATFHDSKLESEIGPISSLVTPETPALFKRGRYEDILKENLSRKLDGKSFLDYMRI",increase in oripavine yield relative to the WT CODM strain,"thebaine; Example 4, oripavine measured after 2 hours",2.76 ×
same,speed of biotransformation with thebaine as substrate (in words),thebaine; time course over twenty-four hours,performed the fastest biotransformation
same,yield of thebaine to oripavine,"thebaine; time course, after ~five hours",~95%
same,increase in morphine yield relative to the WT CODM strain,"codeine; Example 4, morphine measured after 15 minutes",2.3 ×
same,speed of biotransformation with codeine as substrate (in words),codeine; time course over two hours,faster than the WT CODM control
same,yield of morphine,"codeine; time course, after one hour",~94%

# From US20250283129A1, “PROCESS” (Sun Pharmaceutical Industries Australia Pty Limited, priority 2021, published 2025)
